Tests used:
[1] = biological target: Rpb2, second largest subunit of RNA polymerase II (S. cerevisiae, UniProt P08518 1-1224); assay: cross-linking
[2] = biological target: Rpb1, subunit of RNA polymerase II (S. cerevisiae, UniProt P04050 1-1733); assay: cross-linking
Rpb1, subunit of RNA polymerase II, sequence (P04050 whole entry): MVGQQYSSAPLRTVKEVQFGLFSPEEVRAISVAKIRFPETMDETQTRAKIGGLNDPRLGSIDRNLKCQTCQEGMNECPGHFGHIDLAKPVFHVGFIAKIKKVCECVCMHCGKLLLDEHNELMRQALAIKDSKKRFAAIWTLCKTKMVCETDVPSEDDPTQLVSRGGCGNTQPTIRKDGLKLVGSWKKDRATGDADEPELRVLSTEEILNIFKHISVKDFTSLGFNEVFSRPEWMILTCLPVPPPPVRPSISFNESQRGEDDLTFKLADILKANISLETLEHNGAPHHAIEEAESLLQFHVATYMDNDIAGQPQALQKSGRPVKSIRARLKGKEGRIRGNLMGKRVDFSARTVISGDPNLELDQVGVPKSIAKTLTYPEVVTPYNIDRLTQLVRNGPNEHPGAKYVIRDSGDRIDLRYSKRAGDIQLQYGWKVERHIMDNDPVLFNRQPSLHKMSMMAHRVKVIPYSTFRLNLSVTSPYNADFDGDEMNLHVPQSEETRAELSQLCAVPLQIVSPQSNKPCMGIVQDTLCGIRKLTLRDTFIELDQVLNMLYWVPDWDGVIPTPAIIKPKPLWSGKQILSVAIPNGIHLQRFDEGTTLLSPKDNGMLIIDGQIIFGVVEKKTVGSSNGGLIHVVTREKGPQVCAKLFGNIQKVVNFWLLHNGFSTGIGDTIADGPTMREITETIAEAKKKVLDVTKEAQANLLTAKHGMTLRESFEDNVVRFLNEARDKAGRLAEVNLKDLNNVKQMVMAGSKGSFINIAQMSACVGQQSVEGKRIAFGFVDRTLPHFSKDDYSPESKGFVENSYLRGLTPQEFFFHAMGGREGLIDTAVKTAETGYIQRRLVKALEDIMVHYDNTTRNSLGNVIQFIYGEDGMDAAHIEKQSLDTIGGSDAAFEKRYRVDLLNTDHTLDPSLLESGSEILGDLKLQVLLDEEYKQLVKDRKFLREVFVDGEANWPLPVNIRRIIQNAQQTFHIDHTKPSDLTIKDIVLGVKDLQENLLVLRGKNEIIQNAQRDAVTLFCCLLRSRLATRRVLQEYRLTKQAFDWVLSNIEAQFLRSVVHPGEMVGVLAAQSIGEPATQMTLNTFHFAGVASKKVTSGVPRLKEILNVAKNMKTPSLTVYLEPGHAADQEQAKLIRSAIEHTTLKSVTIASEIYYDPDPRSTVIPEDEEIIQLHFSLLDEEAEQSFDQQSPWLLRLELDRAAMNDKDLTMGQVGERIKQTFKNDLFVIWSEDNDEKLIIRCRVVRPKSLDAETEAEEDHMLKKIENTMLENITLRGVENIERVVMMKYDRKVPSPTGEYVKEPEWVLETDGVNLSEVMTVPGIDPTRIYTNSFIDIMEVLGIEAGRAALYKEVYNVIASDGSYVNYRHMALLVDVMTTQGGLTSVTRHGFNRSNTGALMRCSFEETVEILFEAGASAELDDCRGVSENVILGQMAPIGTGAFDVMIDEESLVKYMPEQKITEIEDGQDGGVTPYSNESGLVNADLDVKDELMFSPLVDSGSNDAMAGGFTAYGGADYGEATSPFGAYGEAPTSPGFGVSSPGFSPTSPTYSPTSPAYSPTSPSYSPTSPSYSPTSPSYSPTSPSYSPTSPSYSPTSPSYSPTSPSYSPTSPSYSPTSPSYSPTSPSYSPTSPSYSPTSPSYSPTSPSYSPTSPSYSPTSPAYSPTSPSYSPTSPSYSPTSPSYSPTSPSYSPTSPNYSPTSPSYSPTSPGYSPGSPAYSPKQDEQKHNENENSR

Rpb2, second largest subunit of RNA polymerase II, sequence (P08518 whole entry): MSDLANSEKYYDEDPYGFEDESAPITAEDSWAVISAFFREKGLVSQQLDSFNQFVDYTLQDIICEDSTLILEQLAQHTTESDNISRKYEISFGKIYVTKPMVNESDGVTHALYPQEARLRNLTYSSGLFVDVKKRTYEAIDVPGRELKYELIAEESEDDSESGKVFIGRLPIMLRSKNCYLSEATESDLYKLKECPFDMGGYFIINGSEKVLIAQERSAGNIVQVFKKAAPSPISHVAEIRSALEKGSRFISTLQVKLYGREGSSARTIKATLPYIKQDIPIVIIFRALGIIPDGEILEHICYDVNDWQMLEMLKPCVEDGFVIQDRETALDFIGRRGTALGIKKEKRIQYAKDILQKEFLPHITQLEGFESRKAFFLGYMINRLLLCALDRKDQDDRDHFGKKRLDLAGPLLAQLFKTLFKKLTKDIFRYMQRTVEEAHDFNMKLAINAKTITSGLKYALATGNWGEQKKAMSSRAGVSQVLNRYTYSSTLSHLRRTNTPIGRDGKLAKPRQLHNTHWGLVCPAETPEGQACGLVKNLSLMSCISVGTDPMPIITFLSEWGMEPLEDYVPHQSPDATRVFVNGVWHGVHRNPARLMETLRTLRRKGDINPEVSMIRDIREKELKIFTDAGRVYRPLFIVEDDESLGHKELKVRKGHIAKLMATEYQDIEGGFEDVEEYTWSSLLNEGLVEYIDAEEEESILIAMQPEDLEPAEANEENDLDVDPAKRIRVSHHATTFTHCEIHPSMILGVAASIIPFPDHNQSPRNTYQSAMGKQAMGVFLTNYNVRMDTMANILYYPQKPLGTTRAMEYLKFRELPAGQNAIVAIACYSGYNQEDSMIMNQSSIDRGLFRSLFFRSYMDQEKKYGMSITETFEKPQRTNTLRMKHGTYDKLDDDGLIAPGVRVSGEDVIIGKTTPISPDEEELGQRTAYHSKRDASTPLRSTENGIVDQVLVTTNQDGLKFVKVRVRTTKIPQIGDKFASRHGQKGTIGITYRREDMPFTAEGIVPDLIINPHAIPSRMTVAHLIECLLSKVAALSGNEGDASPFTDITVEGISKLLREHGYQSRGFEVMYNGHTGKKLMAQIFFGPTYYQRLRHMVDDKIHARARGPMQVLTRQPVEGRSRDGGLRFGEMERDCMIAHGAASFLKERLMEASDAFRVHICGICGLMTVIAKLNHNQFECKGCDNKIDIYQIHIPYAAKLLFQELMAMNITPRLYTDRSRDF

B1: Tfg2, subunit of yeast TFIIF, with a C-terminal TAP tag (natural protein, S. cerevisiae, UniProt P41896 1-400, looked up)
chain: MSSGSAGAPALSNNSTNSVAKEKSGNISGDEYLSQEEEVFDGNDIENNETKVYEESLDLDLERSNRQVWLVRLPMFLAEKWRDRNNLHGQELGKIRINKDGSKITLLLNENDNDSIPHEYDLELTKKVVENEYVFTEQNLKKYQQRKKELEADPEKQRQAYLKKQEREEELKKKQQQQKRRNNRKKFNHRVMTDRDGRDRYIPYVKTIPKKTAIVGTVCHECQVMPSMNDPNYHKIVEQRRNIVKLNNKERITTLDETVGVTMSHTGMSMRSDNSNFLKVGREKAKSNIKSIRMPKKEILDYLFKLFDEYDYWSLKGLKERTRQPEAHLKECLDKVATLVKKGPYAFKYTLRPEYKKLKEEERKATLGELADEQTGSAGDNAQGDAEADLEDEIEMEDVV
binding result [1]: binds

B2: Tfg1, subunit of yeast TFIIF (natural protein, S. cerevisiae, UniProt P41895 1-735, looked up)
chain: MSRRNPPGSRNGGGPTNASPFIKRDRMRRNFLRMRMGQNGSNSSSPGVPNGDNSRGSLVKKDDPEYAEEREKMLLQIGVEADAGRSNVKVKDEDPNEYNEFPLRAIPKEDLENMRTHLLKFQSKKKINPVTDFHLPVRLHRKDTRNLQFQLTRAEIVQRQKEISEYKKKAEQERSTPNSGGMNKSGTVSLNNTVKDGSQTPTVDSVTKDNTANGVNSSIPTVTGSSVPPASPTTVSAVESNGLSNGSTSAANGLDGNASTANLANGRPLVTKLEDAGPAEDPTKVGMVKYDGKEVTNEPEFEEGTMDPLADVAPDGGGRAKRGNLRRKTRQLKVLDENAKKLRFEEFYPWVMEDFDGYNTWVGSYEAGNSDSYVLLSVEDDGSFTMIPADKVYKFTARNKYATLTIDEAEKRMDKKSGEVPRWLMKHLDNIGTTTTRYDRTRRKLKAVADQQAMDEDDRDDNSEVELDYDEEFADDEEAPIIDGNEQENKESEQRIKKEMLQANAMGLRDEEAPSENEEDELFGEKKIDEDGERIKKALQKTELAALYSSDENEINPYLSESDIENKENESPVKKEEDSDTLSKSKRSSPKKQQKKATNAHVHKEPTLRVKSIKNCVIILKGDKKILKSFPEGEWNPQTTKAVDSSNNASNTVPSPIKQEEGLNSTVAEREETPAPTITEKDIIEAIGDGKVNIKEFGKFIRRKYPGAENKKLMFAIVKKLCRKVGNDHMELKKE
binding result [2]: binds
binding result [1]: binds
